Data published in patent US20230192789A1, “STRUCTURALLY-STABILIZED AND HDMX-SELECTIVE P53 PEPTIDES AND USES THEREOF” (Dana-Farber Cancer Institute, Inc., priority 2020, published 2023).
“Also recorded” adds a separate entry of the source. Bridges are numbered along the chain shown (N, C = ends). Where no end group is shown, it is not given here. [ ]: non-standard residue; d: D form. The star is where a group is joined. Biotin = O=C1N[C@H]2[C@H](CS[C@H]2CCCCC(=O)*)N1; R8 = C=CCCCCCC[C@@](C)(N)C(=O)O; S5 = C=CCCC[C@](C)(N)C(=O)O

Legend:
[1] = molecular target: T1, recombinant HDMX (amino acids 1-490 of SEQ ID NO:104) (Homo sapiens, UniProt O15151); experiment: Competitive streptavidin pull-down of biotinylated peptides with 1:1 recombinant HDM2/HDMX mixture, HDMX western; type: binding; details: biotinylated stapled peptide, 1:1 mixture of recombinant HDM2 and HDMX
T1 construct: thioredoxin (N, cleaved yes); S tag (N, cleaved yes); hexahistidine (N, cleaved yes); made in house; host or cells: E. coli (inferred: pET32-LIC vector, handled as described for HDM2 in BL21(DE3))
T1 sequence (O15151 1-490): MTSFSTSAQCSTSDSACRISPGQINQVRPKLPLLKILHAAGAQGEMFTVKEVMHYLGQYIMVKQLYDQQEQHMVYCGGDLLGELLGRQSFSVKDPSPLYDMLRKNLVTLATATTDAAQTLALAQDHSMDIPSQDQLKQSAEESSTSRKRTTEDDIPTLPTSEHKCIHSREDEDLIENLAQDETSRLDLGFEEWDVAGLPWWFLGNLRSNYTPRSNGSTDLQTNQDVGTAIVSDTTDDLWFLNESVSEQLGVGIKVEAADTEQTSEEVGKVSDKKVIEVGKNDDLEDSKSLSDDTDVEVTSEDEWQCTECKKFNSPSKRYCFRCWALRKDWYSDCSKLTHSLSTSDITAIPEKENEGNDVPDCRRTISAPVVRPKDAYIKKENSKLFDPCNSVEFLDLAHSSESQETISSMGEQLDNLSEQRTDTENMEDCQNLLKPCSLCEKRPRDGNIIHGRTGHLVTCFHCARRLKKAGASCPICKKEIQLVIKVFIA

[2] = molecular target: T2, recombinant HDM2 (amino acids 17-125 of SEQ ID NO:103) (Homo sapiens, UniProt Q00987); experiment: Competitive streptavidin pull-down of biotinylated peptides with 1:1 recombinant HDM2/HDMX mixture, HDM2 western; type: binding; details: biotinylated stapled peptide, 1:1 mixture of recombinant HDM2 and HDMX
T2 construct: hexahistidine (N); thrombin cleavage site (N); made in house; host or cells: BL21(DE3) E. coli
Protocol: For these studies, biotinylated peptides were incubated with a 1:1 mixture of recombinant HDM2 (amino acids 17-125 of SEQ ID NO: 103) and HDMX (amino acids 1-490 of SEQ ID NO: 104), followed by streptavidin pull-down and HDM2 and HDMX Western analyses. […] .

OCI-AML2 cells = experiment: LDH release assay, OCI-AML2; type: cell-based; details: OCI-AML2, 90 minutes after peptide treatment, highest dosing level
Protocol: (§1) LDH release assay: To assess the release of lactate dehydrogenase (LDH) upon treatment with a structurally-stabilized peptide described herein, an LDH release assay can be used. Cultured cells, including, e.g., cancer cells and HUVEC cells, are plated in 96-well format (2x10^4 cells per well; including overnight incubation for adherent cells) and then treated with serial dilutions of structurally-stabilized peptides in a final volume of 100 µL and incubated at 37° C. for the indicated time period (e.g., 90 minutes). The plates are spun down at 1500 rpm for 5 minutes at 4° C., and 80 µL of cell culture media is transferred to a clear plate (Corning), incubated with 80 µL of LDH reagent (Roche) for 15 minutes while shaking, and absorbance is measured at 490 nm on a microplate reader (SpectraMax M5 Microplate Reader, Molecular Devices).
(§2) LDHRelease Assay: OCI-AML2 cells (1 × 10^4 cells/well) were plated in 96-well plates and treated with the indicated peptides or vehicle (0.2% DMSO). After 1.5 hours incubation at 37° C., 100 µl of cell medium was transferred to a 96-well clear plate and incubated with 100 µl of LDH reagent (Roche) for 25 minutes while shaking, and absorbance at 490 nm measured on a microplate reader (SpectraMax M5 Microplate Reader, Molecular Devices).

EOL-1 cells = experiment: LDH release assay, EOL-1; type: cell-based; details: EOL-1, 90 minutes after peptide treatment, highest dosing level
Protocol: as §1, §2

native HDMX = molecular target: T3, native HDMX (Homo sapiens, UniProt O15151); experiment: Streptavidin pull-down from cancer cell lysates, HDMX western; type: binding
T3 construct: high fidelity selectivity for native HDMX from cells; endogenous in cells; host or cells: EOL-1 and OCI-AML2 lysates (endogenous); SJSA-X lysates (cells engineered to express HDMX)
T3 sequence (O15151 1-490): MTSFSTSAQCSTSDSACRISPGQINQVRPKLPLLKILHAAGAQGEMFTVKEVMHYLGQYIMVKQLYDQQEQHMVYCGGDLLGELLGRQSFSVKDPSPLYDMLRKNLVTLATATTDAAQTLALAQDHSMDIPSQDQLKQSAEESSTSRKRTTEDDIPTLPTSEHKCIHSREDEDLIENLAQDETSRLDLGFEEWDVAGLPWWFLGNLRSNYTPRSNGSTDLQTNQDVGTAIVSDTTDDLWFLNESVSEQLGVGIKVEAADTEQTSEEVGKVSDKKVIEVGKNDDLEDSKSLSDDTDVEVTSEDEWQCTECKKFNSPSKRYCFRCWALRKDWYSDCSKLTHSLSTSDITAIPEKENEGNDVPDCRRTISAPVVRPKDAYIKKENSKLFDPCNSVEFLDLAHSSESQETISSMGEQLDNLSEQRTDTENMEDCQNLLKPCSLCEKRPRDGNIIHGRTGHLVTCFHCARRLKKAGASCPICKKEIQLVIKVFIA
Protocol: (§3) In order to determine if the insights gleaned from the biochemical and structural analyses (Examples 1 and 2, above) informed the development of a stapled p53 peptide with high fidelity selectivity for native HDMX from cells, binding assays were performed using cellular lysates from both hematologic (FIG. 16A) and solid (FIG. 16B) cancers.
(§4) Streptavidin Pull-Down - Cell Lysates: Cultured cells were trypsinized, washed once with cold PBS, and lysed on ice for 30 minutes in lysis buffer (0.5% NP-40, 150 mM NaCl, 50 mM Tris pH 7.4). Protein concentration of the isolated supernatant was determined by Bradford reagent. Lysate samples (2 mg) were incubated with vehicle (0.6% DMSO) or biotinylated peptides (15 nmole) overnight in lysis buffer at 4° C. […] Bead-bound proteins were eluted by addition of 50 µl 2x LDS supplemented with DTT and boiling for 10 minutes. Eluted proteins were then subjected to electrophoresis and western blotting using HDM2 (IF2, EMD Millipore, 1:200) and MDM4 (A300-287A; Bethyl Laboratories, 1:1000) antibodies.

native HDM2 = molecular target: T4, native HDM2 (Homo sapiens, UniProt Q00987); experiment: Streptavidin pull-down from cancer cell lysates, HDM2 western; type: binding
T4 construct: in the context of the native proteins from cancer cell lysates; endogenous in cells; host or cells: EOL-1, OCI-AML2, SJSA-X cell lysates
Protocol: as §3, §4

[3] = tested on: wild-type, Y99F, and Y99A HDMX (full-length); experiment: Streptavidin pull-down with wild-type, Y99F and Y99A HDMX proteins; details: biotinylated peptide, full-length HDMX proteins incubated individually, HDMX western
[4] = molecular target: T5, recombinant HDM2 (amino acids 17-125 of SEQ ID NO:103) (human, UniProt Q00987 17-125); experiment: isothermal titration calorimetry, peptide titrated into HDM2
T5 construct: also called MDM2; not shown: thrombin cleavage site (pET28a vector)

[5] = molecular target: T5, recombinant HDM2 (amino acids 17-125 of …); experiment: fluorescence polarization, FITC-labelled peptide titrated with HDM2
[6] = EOL-1, OCI-AML2, and SJSA-X cancer cell lysates
[7] = EOL-1 and OCI-AML2 leukemia cell lysates, biotinylated peptide
[8] = SJSA-X osteosarcoma cell lysates, biotinylated peptide

ATSP-7041 B26A (Biotin-LTF[R8]EYWAQA[S5]SAA-NH2; staple 4-11; SMILES CC(C)C[C@H](NC(=O)CCCC[C@@H]1SC[C@@H]2NC(=O)N[C@@H]21)C(=O)N[C@H](C(=O)N[C@@H](Cc1ccccc1)C(=O)N[C@]1(C)CCCCCCC=CCCC[C@@](C)(C(=O)N[C@@H](CO)C(=O)N[C@@H](C)C(=O)N[C@@H](C)C(N)=O)NC(=O)[C@H](C)NC(=O)[C@H](CCC(N)=O)NC(=O)[C@H](C)NC(=O)[C@H](Cc2c[nH]c3ccccc23)NC(=O)[C@H](Cc2ccc(O)cc2)NC(=O)[C@H](CCC(=O)O)NC1=O)[C@@H](C)O)
HDMX interaction [1]: engage HDMX with greatest affinity
HDMX versus HDM2 binding selectivity [1]: HDMX selectivity over HDM2; also recorded: most HDMX-specific
HDM2 interaction [2]: essentially abrogate HDM2 interaction

ATSP-7041 B26L
HDMX versus HDM2 binding selectivity [1]: dual HDM2/HDXM-targeting activity
HDMX versus HDM2 binding selectivity ([1]; listed as SEQ ID NO:65): dual-selectivity to HDMX and HDM2
HDM2 interaction [2]: restored HDM2 binding and bind

ATSP-7041 B26I (Biotin-LTF[R8]EYWAQI[S5]SAA-NH2; staple 4-11; SMILES CC[C@H](C)[C@@H]1NC(=O)[C@H](CCC(N)=O)NC(=O)[C@H](C)NC(=O)[C@H](Cc2c[nH]c3ccccc23)NC(=O)[C@H](Cc2ccc(O)cc2)NC(=O)[C@H](CCC(=O)O)NC(=O)[C@](C)(NC(=O)[C@H](Cc2ccccc2)NC(=O)[C@@H](NC(=O)[C@H](CC(C)C)NC(=O)CCCC[C@@H]2SC[C@@H]3NC(=O)N[C@@H]32)[C@@H](C)O)CCCCCCC=CCCC[C@@](C)(C(=O)N[C@@H](CO)C(=O)N[C@@H](C)C(=O)N[C@@H](C)C(N)=O)NC1=O)
HDMX versus HDM2 binding selectivity [1]: dual HDM2/HDXM-targeting activity
HDMX versus HDM2 binding selectivity ([1]; listed as SEQ ID NO:63): dual-selectivity to HDMX and HDM2
HDM2 interaction [2]: restored HDM2 binding and bind

ATSP-7041 B26R (Biotin-LTF[R8]EYWAQR[S5]SAA-NH2; staple 4-11; SMILES CC(C)C[C@H](NC(=O)CCCC[C@@H]1SC[C@@H]2NC(=O)N[C@@H]21)C(=O)N[C@H](C(=O)N[C@@H](Cc1ccccc1)C(=O)N[C@]1(C)CCCCCCC=CCCC[C@@](C)(C(=O)N[C@@H](CO)C(=O)N[C@@H](C)C(=O)N[C@@H](C)C(N)=O)NC(=O)[C@H](CCCNC(=N)N)NC(=O)[C@H](CCC(N)=O)NC(=O)[C@H](C)NC(=O)[C@H](Cc2c[nH]c3ccccc23)NC(=O)[C@H](Cc2ccc(O)cc2)NC(=O)[C@H](CCC(=O)O)NC1=O)[C@@H](C)O)
HDMX interaction [1]: engage HDMX with greatest affinity
HDMX versus HDM2 binding selectivity [1]: HDMX selectivity over HDM2; also recorded: most HDMX-specific
HDM2 interaction [2]: essentially abrogate HDM2 interaction

CC(=O)N[C@@H](CC(C)C)C(=O)N[C@H](C(=O)N[C@@H](Cc1ccccc1)C(=O)N[C@]1(C)CCCCCCC=CCCC[C@@](C)(C(=O)N[C@@H](CO)C(=O)N[C@@H](C)C(=O)N[C@@H](C)C(N)=O)NC(=O)[C@H](CCC(=O)O)NC(=O)[C@H](CCC(N)=O)NC(=O)[C@H](C)NC(=O)[C@H](Cc2c[nH]c3ccccc23)NC(=O)[C@H](Cc2ccc(O)cc2)NC(=O)[C@H](CCC(=O)O)NC1=O)[C@@H](C)O [ATSP-7041 B26E, LTF8EYWAQEXSAA]
non-specific membrane disruption (LDH release) (OCI-AML2 cells): no non-specific membrane disruptive activity
non-specific membrane disruption (LDH release) (EOL-1 cells): no non-specific membrane disruptive activity

QSQQTF8NLWRLLXQN [SAH-p53-8, reference compound]
HDMX versus HDM2 binding selectivity [1]: dual-targeting HDM2/HDMX
native HDMX binding (native HDMX; [6]): effectively engaged
native HDMX binding (native HDMX; [7]): binds
native HDMX binding (native HDMX; [8]): binds
native HDM2 binding (native HDM2; [6]): effectively engaged
native HDM2 binding (native HDM2; [7]): binds
native HDM2 binding (native HDM2; [8]): binds
interaction with Y99F and Y99A HDMX [3]: retained interaction; also recorded: effectively bind

QSQQTF8NLWRLEXQN (QSQQTF[R8]NLWRLE[S5]QN; staple 7-14) [SAH-p53-8 L26E]
HDMX interaction [1]: robust HDMX-binding activity
HDMX versus HDM2 binding selectivity [1]: exquisite binding selectivity for HDMX; also recorded: HDMX-selective
native HDMX binding (native HDMX; [6]): preserved
native HDMX binding (native HDMX; [7]): selective interaction with HDMX
native HDMX binding (native HDMX; [8]): predominant HDMX interaction
native HDM2 binding (native HDM2; [6]): markedly impaired or abrogated
native HDM2 binding (native HDM2; [7]): abrogates HDM2 binding
native HDM2 binding (native HDM2; [8]): impairs HDM2 interaction
interaction with Y99F and Y99A HDMX [3]: significantly impaired; also recorded: markedly impair interaction

SAH-p53-4 K24E/E28A: Formula (I) stapled peptide: [Xaa]w LSQETF, [Xaa]x DLWELL, [Xaa]y AN (LSQETF[R8]DLWELL[S5]AN-NH2; staple 7-14; not fully specified (N-terminus))
HDMX interaction [1]: HDMX binding
HDMX versus HDM2 binding selectivity [1]: restored dual HDM2/HDMX interaction
HDMX versus HDM2 binding selectivity ([1]; listed as SEQ ID NO:47): selectivity to HDM2
HDM2 interaction [2]: especially robust HDM2 interaction

B1: SAH-p53-4 (peptide)
peptide: LSQETF[R8]DLWKLL[S5]EN
modifications: staple 7-14; also: N-terminus biotin, acetyl or FITC depending on assay
notes: One entry for the peptide; also called wild-type SAH-p53-4; LSQETF8DLWKLLXEN
Kd [4]: 20.4 nM
Kd [5]: 12 nM
